Tests used:
[1] = target: EGFR-EGFP with deletion of the dimerization arm, residues 242 to 259 (human) (UniProt P00533); assay: single-molecule stepwise photobleaching (TIRF microscopy); EGFP fusions on the membrane of live Xenopus oocytes, without EGF; ~1 to ~5 molecules per um^2; room temperature; 20 Hz; 3% two-step baseline (Claudin-16) subtracted
[2] = target: Src13-GCN4: c-Src membrane localization sequence, coiled-coil segment of GCN4, EGFP or mCherry; assay: PIE-FCCS (pulsed-interleaved excitation fluorescence cross-correlation spectroscopy); control constructs with the c-Src membrane localization sequence, EGFP and mCherry fusions coexpressed; data collected previously on the same instrument and reproduced here; median fraction correlated fc
[3] = target: Src13-GCN4-EGFRk: c-Src membrane localization sequence, coiled-coil segment of GCN4 joined to the N-terminus of the kinase domain of EGFR, EGFP or mCherry (UniProt P00533); assay: as above

With “EGFR-EGFP with deletion of the dimerization arm, residues 242 to 259 (from UniProt P00533 25-1210) (receptor)” the fraction of two-step photobleaching events (baseline subtracted) [1] was 9%.

For “Src13-GCN4: c-Src membrane localization sequence, coiled-coil segment of GCN4, EGFP or mCherry”, the fraction correlated fc (median) [2] was 0.13.

“Src13-GCN4-EGFRk: c-Src membrane localization sequence, coiled-coil segment of GCN4 joined to the N-terminus of the kinase domain of EGFR, EGFP or mCherry (from UniProt P00533 712-979)” gave a fraction correlated fc (median) [3] of 0.23.

Source: article PMC4902571
